Results reported in article doi:10.1101/2022.06.10.495428.

Experiments:
[1] = molecular target: Influenza A/Zhejiang/DTID-ZJU01/2013 (H7N9) polymerase heterotrimer (influenza A/Zhejiang/DTID-ZJU01/2013 (H7N9)) (UniProt M9TI86); assay: cryo-EM structure
[2] = molecular target: Influenza A/Zhejiang/DTID-ZJU01/2013 (H7N9) polymerase heterotrimer (influenza A/Zhejiang/DTID-ZJU01/2013 (H7N9)) (UniProt M9TI86); assay: SEC-MALS

Influenza A/Zhejiang/DTID-ZJU01/2013 (H7N9) polymerase heterotrimer (from UniProt M9TI86;M9TLW3;X5F427) (complex)
stoichiometry N [1]: 2
stoichiometry N [2]: 2
